Results published in PMC5994897.

B1: Alexa-488-labeled Stu1-TOG2 with a KCK tag (domain or fragment)
chain: DPAMKKNYESLNQLQQDLENLLAPFQSVKETEQNWKLRQSNIIELDNIISGNIPKDNPEEFVTVIKEVQLIELISRATSSLRTTLSLTALLFLKRLIHILNDQLPLSILDQIFVIFKNLLSSTKKISSQTAFHCLITLIIDINHFHNKLFQLSFLLINEKTVTPRFCSAILLRSFLIKFNDSNLSLNNSNTTSPTSKLENNIIYIEEWLKKGISDSQTTVREAMRLTFWYFYKCYPTNAKRLLSSSFSPQLKKATELAIPAHL
modifications: Alexa-488 label
B2: Alexa-488-labeled Stu1-TOG1 with a KCK tag (domain or fragment)
chain: NSNTNTHPDDSFPLYTVFKDESVPIEEKMALLTRFKGHVKKELVNESSIQAYFAALLFISGHYAYRSYPRLIFLSHSSLCYLIKRVAMQSPVQFNDTLVEQLLNHLIFELPNEKKFWLASIKAIEAIYLVNPSKIQAILANFLRRPSENQNGDYLNRIKSTLLTIDELIQINEKNNSNHLQLLRFFMLSFTNLLNNNLNEHANDDNNNVIIELIFDIMYKYLKMDDENSQDLIDGFINDLEVEKFKQKFISLAKSQDQHGSQEDKS
modifications: Alexa-488 label

How the values were obtained:
[1] = biological target: yeast αβ-tubulin (wild type) (yeast (overexpressed in S. cerevisiae)) (UniProt P09733); assay: AUC
[2] = biological target: Yeast tubulin with a C-terminal … tag, ReAsH-labeled (yeast (overexpressed in S. cerevisiae)) (UniProt P09733); assay: TIRF microscopy microtubule-binding titration

| Molecule | Kd [1] [µM] | Kd [2] [µM] |
| --- | --- | --- |
| Stu1-TOG2 (305-567) (from UniProt P38198 305-567) (domain or fragment) | 1.68 |  |
| B1 |  | 12 |
| B2 |  | 40 |
